Values quoted from earlier work as cited in publication PMC11468230.

Assays:
IKCa1 (Homo sapiens) = IKCa1 (Homo sapiens) (UniProt O15554)
[1] = biological target: KV channel (Kv1.3) (Homo sapiens) (UniProt P22001)
[2] = biological target: GLP-1 receptor (Homo sapiens) (UniProt P43220)
Kv1.3 (Homo sapiens) = Kv1.3 (Homo sapiens) (UniProt P22001)

Sequence of UniProt O15554 (O15554 whole entry): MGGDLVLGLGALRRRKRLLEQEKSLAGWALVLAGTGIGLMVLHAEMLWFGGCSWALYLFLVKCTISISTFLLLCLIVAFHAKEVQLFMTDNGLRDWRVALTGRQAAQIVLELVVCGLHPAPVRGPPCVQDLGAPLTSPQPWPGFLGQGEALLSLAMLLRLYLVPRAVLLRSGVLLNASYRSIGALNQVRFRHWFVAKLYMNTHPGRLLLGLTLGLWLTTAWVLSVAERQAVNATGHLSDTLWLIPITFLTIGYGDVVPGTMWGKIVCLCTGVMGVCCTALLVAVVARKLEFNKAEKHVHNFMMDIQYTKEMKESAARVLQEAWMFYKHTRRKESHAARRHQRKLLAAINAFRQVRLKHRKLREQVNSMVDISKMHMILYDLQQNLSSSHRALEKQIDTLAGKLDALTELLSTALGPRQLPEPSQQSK
Sequence of UniProt P43220 (P43220 24-463): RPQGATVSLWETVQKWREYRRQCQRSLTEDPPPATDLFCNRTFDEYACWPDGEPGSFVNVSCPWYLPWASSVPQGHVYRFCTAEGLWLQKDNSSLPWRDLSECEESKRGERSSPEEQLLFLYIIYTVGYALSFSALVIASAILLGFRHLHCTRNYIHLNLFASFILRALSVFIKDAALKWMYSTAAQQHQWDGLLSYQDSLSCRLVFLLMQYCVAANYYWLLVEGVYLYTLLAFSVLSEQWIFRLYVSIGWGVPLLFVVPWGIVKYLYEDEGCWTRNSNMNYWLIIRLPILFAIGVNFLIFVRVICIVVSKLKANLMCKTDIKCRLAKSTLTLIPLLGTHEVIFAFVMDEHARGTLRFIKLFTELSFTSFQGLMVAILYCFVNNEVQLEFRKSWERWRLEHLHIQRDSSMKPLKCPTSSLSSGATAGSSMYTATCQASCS

## Charybdotoxin (from UniProt P13487)
IKCa1 (Homo sapiens)
  Kd: 5 nM
[1]
  Kd: 3 nM

## exendin-4 (from UniProt P26349)
[2]
  Ki: 0.46 nM

## ShK (from UniProt P29187)
Kv1.3 (Homo sapiens)
  Kd: 0.011 nM
